Data taken from patent US20100048413.

Tested on: aspRS-OB wild type (anticodon-binding OB-fold domain of aspartyl-tRNA synthetase) (Pyrobaculum aerophilum)
Assay: pulldown
Conditions: phage binding to immobilised tRNA; RNase A elution; VCS-M13 without display 1.42

## asp-tRNA (P. aerophilum, in vitro transcript)
  binding signal (fold recovery over beads only): 190
